Reference: paper PMC5207208 (Science (New York, N.Y.), 2016)

B1: Nup145N fragment (residues 606–750) (domain or fragment, Chaetomium thermophilum, UniProt G0SAK3 606-750, looked up)
chain: DDKIQNPGPLATPLSGKAKVKSRSILPMYKLSPANASRLVTTPQKRAYGFSFSAYGSPTSPSSSASSTPGAFGQSILSSSINRGLNKSISASNLRRSLNVEDSILQPGAFSANSSMRLLGGPGSHKKLVINKDMRTDLFSPPNKD
B2: Nup145N fragment (residues 606–683) (domain or fragment, Chaetomium thermophilum, UniProt G0SAK3 606-683, looked up)
chain: DDKIQNPGPLATPLSGKAKVKSRSILPMYKLSPANASRLVTTPQKRAYGFSFSAYGSPTSPSSSASSTPGAFGQSILS

How the values were obtained:
Nup188 = Nup188 (Chaetomium thermophilum, UniProt G0SFH5 1-1858); assay: SEC-MALS
Chain of Nup188 (G0SFH5 whole entry): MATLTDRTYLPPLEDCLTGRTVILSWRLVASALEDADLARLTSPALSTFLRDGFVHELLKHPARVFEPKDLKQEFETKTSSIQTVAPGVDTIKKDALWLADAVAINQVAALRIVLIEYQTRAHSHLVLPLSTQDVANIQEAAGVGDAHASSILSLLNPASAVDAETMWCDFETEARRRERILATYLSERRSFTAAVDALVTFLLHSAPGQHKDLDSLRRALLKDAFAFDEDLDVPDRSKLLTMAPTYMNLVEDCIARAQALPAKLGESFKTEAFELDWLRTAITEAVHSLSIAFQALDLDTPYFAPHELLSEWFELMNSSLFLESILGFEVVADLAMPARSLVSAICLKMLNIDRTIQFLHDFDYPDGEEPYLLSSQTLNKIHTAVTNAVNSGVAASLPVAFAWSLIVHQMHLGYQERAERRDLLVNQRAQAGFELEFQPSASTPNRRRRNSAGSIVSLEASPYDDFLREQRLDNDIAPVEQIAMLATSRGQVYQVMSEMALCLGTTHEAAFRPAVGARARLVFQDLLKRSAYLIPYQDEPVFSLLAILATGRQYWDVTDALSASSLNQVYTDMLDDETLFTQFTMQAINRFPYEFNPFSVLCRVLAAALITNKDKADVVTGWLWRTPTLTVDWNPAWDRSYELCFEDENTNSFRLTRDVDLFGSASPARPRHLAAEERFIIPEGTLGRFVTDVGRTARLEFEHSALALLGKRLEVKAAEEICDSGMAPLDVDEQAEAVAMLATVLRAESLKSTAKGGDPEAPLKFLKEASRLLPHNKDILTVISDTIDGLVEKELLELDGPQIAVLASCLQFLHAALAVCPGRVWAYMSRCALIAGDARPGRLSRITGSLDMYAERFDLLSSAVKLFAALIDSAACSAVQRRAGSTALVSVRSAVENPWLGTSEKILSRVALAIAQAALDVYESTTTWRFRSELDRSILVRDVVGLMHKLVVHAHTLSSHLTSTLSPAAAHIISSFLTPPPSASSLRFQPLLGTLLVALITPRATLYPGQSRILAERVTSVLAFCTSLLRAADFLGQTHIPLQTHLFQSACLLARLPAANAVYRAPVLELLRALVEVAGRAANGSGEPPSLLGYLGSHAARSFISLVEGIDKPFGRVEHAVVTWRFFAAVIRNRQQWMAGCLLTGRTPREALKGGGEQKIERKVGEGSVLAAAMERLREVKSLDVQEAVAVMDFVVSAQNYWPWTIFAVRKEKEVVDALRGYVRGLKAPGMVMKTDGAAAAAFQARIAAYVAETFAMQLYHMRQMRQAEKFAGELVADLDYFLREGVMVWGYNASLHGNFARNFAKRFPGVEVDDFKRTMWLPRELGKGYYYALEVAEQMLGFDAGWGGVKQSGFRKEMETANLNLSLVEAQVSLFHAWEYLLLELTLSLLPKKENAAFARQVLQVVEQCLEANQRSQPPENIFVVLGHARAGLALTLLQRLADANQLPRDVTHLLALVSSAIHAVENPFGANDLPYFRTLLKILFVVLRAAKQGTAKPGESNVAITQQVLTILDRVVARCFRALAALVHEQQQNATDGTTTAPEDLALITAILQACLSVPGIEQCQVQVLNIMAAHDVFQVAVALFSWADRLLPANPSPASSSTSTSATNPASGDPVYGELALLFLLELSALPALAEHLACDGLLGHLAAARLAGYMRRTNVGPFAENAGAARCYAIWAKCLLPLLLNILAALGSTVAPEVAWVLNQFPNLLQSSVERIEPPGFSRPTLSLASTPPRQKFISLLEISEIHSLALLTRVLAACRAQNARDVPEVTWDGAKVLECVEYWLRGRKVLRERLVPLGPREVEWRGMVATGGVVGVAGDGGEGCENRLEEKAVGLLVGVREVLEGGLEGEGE

Nup192 = Nup192 (Chaetomium thermophilum, UniProt G0S4T0 1-1756); assay: SEC-MALS
Chain of Nup192 (G0S4T0 whole entry): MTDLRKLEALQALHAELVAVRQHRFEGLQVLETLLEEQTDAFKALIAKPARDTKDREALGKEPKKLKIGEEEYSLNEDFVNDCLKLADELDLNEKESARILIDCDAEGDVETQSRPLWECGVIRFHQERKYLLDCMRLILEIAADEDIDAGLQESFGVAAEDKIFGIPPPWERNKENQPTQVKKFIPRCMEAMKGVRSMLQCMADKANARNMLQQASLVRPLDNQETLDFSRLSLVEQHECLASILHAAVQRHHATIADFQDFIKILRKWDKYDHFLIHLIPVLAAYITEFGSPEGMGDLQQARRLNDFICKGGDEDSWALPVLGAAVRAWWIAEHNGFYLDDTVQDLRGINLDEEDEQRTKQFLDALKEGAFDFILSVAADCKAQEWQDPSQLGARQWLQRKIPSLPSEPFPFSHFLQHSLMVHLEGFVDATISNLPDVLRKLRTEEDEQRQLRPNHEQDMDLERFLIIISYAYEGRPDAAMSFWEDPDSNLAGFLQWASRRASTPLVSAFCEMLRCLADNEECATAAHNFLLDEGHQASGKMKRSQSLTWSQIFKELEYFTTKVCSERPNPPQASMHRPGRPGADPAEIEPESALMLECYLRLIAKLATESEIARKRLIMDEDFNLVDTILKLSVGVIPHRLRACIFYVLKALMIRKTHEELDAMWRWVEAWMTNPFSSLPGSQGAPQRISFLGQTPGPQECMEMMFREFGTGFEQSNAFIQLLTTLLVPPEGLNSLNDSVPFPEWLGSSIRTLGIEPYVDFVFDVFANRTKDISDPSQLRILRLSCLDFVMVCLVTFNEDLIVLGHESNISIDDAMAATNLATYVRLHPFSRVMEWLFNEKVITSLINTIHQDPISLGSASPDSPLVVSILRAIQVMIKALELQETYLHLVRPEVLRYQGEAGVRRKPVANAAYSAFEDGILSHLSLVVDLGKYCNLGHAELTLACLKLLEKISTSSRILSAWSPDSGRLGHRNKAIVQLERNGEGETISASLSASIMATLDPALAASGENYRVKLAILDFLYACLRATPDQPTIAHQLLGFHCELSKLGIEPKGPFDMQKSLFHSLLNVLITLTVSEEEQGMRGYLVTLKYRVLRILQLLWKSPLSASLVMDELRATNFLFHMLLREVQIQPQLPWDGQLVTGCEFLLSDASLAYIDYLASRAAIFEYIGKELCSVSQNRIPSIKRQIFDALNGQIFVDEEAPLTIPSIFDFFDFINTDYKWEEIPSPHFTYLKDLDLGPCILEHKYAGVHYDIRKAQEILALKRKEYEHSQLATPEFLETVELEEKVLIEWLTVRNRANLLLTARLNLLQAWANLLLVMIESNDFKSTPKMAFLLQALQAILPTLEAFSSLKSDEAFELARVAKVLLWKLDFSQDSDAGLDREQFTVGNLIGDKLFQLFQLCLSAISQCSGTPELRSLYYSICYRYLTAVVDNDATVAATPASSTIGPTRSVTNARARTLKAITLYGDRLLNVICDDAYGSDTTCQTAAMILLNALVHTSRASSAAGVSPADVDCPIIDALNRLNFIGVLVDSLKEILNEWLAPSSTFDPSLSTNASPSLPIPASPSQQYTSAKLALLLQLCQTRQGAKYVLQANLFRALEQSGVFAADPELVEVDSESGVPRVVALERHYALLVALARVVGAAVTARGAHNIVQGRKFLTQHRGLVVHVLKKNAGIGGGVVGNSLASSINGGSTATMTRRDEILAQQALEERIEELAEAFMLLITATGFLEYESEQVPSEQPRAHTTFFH

Row | Binder | binding result (Nup188) | binding result (Nup192)
1 | B1 | binds | –
2 | DFDAFLEENVTLEWEAQRKRIYQHFGIK (peptide, UniProt G0S024 274-301, looked up) [Nic96 fragment (residues 274–301)] | binds | –
3 | B2 | – | binds
4 | EWEAQRKRIYQHFGIK (peptide, UniProt G0S024 286-301, looked up) [Nic96 fragment (residues 286–301)] | – | binds
